Measured values: US20170355744A1 (published 2017)

Molecular target: T1, Untagged Naglu (human, UniProt P54802 24-743)
T1 construct: also called untagged Naglu protein; alpha-N-acetylglucosaminidase
T1 sequence: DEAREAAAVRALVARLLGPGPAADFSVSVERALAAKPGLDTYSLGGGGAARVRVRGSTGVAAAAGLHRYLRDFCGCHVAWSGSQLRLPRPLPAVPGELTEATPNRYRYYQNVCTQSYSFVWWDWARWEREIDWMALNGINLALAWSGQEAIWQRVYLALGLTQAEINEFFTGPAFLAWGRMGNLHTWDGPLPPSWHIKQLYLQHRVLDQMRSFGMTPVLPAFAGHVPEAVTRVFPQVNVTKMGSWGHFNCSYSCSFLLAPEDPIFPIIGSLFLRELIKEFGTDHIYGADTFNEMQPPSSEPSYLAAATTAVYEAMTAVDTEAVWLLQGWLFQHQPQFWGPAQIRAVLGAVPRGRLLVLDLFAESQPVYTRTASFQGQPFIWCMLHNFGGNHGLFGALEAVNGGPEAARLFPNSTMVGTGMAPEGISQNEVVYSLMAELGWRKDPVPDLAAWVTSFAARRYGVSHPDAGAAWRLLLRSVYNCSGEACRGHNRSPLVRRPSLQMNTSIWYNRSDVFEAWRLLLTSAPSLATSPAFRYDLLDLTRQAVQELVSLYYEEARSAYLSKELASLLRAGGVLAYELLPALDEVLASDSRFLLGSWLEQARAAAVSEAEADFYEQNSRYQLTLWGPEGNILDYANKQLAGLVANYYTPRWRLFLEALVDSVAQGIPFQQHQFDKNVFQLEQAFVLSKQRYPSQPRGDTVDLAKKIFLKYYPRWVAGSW
Assay: IGF2R competitive binding assay (displacement of biotinylated IGF-II from plate-coated IGFIIR domains 10-13)
Procedure: To measure the ability of the Naglu fusion protein constructs to bind to the IGF-II receptor a competitive binding assay is carried out. A fragment of the IGFIIR involved with IGF-II binding (domains 10-13, named protein 1288) is coated onto 96-well plates. Biotinylated IGF-II is incubated with the receptor in the presence of increasing amounts of competitors: either control IGF-II (non-biotinylated), or fusion protein sample (containing an IGF-II-derived GILT epitope tag). Receptor-bound biotinylated IGF-II is detected with streptavidin conjugated to horseradish peroxidase (HRP) and a chemiluminescent HRP substrate. The ability of the fusion protein to inhibit binding of biotinylated IGF-II to the IGFIIR is calculated from inhibition curves and reported as an IC₅₀ value (concentration required to achieve 50% binding inhibition).
For the assay, IGFIIR is coated in a white Reacti-bind plate (Pierce, Cat#437111) at 0.5 μg/well in a volume of 100 μl (69.6 nM/per well) in coating buffer. The plate is sealed and incubated overnight at room temperature. The plate is then washed 3× with wash buffer, blocked with blocking buffer and then washed again 3× with wash buffer (300 μl/well).

B1: fragment of the IGFIIR involved with IGF-II binding (domains 10-13, named protein 1288) (receptor, UniProt P11717 1367-1989, looked up)
chain: TECSFKDGAGNSFDLSSLSRYSDNWEAITGTGDPEHYLINVCKSLAPQAGTEPCPPEAAACLLGGSKPVNLGRVRDGPQWRDGIIVLKYVDGDLCPDGIRKKSTTIRFTCSESQVNSRPMFISAVEDCEYTFAWPTATACPMKSNEHDDCQVTNPSTGHLFDLSSLSGRAGFTAAYSEKGLVYMSICGENENCPPGVGACFGQTRISVGKANKRLRYVDQVLQLVYKDGSPCPSKSGLSYKSVISFVCRPEARPTNRPMLISLDKQTCTLFFSWHTPLACEQATECSVRNGSSIVDLSPLIHRTGGYEAYDESEDDASDTNPDFYINICQPLNPMHGVPCPAGAAVCKVPIDGPPIDIGRVAGPPILNPIANEIYLNFESSTPCLADKHFNYTSLIAFHCKRGVSMGTPKLLRTSECDFVFEWETPVVCPDEVRMDGCTLTDEQLLYSFNLSSLSTSTFKVTRDSRTYSVGVCTFAVGPEQGGCKDGGVCLLSGTKGASFGRLQSMKLDYRHQDEAVVLSYVNGDRCPPETDDGVPCVFPFIFNGKSYEECIIESRAKLWCSTTADYDRDHEWGFCRHSNSYRTSSIIFKCDEDEDIGRPQVFSEVRGCDVTFEWKTKVVCPP
notes: domain: domains 10-13; Coated on the plate at 0.5 ug/well; also called IGF2R
binding result: no binding
